Experiment: soluble on expression in E. coli; label from the status in PepcDB or PDB records

Row | Sequence | soluble on expression in E. coli
1 | MINHKIFPTADAVVKSLADDMLAYSQQGQPVHISLSGGSTPKMLFKLLASQPYANDIQWKNLHFWWGDERCVAPDDAESNYGEANALLFSKINMPAQNIHRILGENEPQAEAERFAQAMAHVIPTENGTPVFDWILLGVGADGHTASLFPGQTDYADANLSVVASHPESGQLRVSKTAKVLQAAKRISYLVLGAGKAEIVEQIHTTPAEQLPYPAAKIHSTSGVTEWYLDSDAAAKIA | soluble
2 | MAHHHHHHMLGSGKSSGVVNEASNLKANQNLTSAIEEMNTKEYIRNRDLNDVVPTHRRQVEAMMNKGNNNNGKVGLPAYDPAAEKEKERKERGQTHIEDRNDSDDDGELEELRKRRMAQMQQHHAKVAEWRQKQHGQYREISQDEFFSIVVREKGGSDDVCVHFYHKDFETCRVMDSRLLELSRMMLSVKFVKIDAEKSPFLVERLHIKTLPCCVLFHNDVAVDRIYGFEGCIGEDGLLDKELLGERILRAVNCKQEECE | soluble
3 | MGSDKIHHHHHHMEVIFKRPKALSDREFTYCPGCHHGIIHRLIAEVIDELDIQEKTIMVAPVGCSVFAYEFFDVDGTVAPHGRALAVATGIKRALPDMIVFTYQGDGDLAAIGIAETIHAANRGEKLTTIFVNNAVYGMTGGQMAPTTLLGQKTTTTPYGRTAANDGYPLHVSEALSTIDGVAYLERTTVSTTKDILNTKKAIKKAFLAQIKGLGFGMVEVLSTCPTNWGMSPVEAQNWLLENMVKEFPPKVFVDKVGD | not soluble
4 | MSINVDEFQCYRIPNVYVQWYDLEPTIHWLTGGNSNSRQIQEMDQKKKKIRSTSAYALFFRERQSLEKRAAPYATFGQISQKIARQWDSLTEEEKKAYKQRCEKNRKTSIANAVEEKARQLLTASKFQ | not soluble
5 | VSPRPGPAGRGPAPCRCADLHSLCVDSHALRRDGMRFLHTADWQLGMTRHFLAGDAQPRYSAARRDAVAGLKALAADVGAEFVVVAGDVFEHNQLAPQIVGQSLEAMRVIGLPVYLLPGNHDPLDASSVYTSTLFRAERPDNVVVLDRAGVHEVRPGVQIVAAPWRSKAPTTDPVAEVLAGLPTDAAIRLLVAHGGVDALDPDHDKPSLIRLAALDDALTRQAIHYVALGDKHSLTQVGSSGRVWYSGAPEVTNFDDVEPDPGHVLVVDIDESDPRHPVTVDARRIGRWRFVTLHHQVDTSRDIADLDLNLDLMTDKDRTVVRLALTGSLTVTDRAALDTCLDKYARLFAWLGLWERHTDLAVIPVDAEFTDLGIGGFAAAAVDELVATARGGDDESAVDAQAALALLLRLADRGAA | not soluble
6 | MEDCRGDGSRREIERRRKYGRELQDLREGGEEFEYYFFVSNVFRTKLQKMPGADYSAVKGGGLKLKAGKKNLFKVGKEKKKKNKDDKEKIDPDTVENGGWRKIADEFDMKGGTNVAIEVASGAGSTRTYVAAMDNGKFTIGFPHPEGEGPNPEEIFALVKTPDDSKISLKTGFGRYVGVDSEYQLVAMAEAIGSREQFVLVFQEGKTAFQAVSSPLFLSTVPNKEGHIYVASRTATENEMVNIRTDAIQEGPVDWRSVEDRKNARECETAYVKMYQHSKVDLKNRHIAIDVKDKKGVKKAQADGSAHELLLDRRMKMKSDRYC | not soluble
7 | MPLEASELKPTAGPLEASELKPTAGPLEASELKPTAGPLEASELKPTAGPLEASELKPTAGPLEASELKPTAGPLEASELKPTAGMIVVYVFVYAFKAVKQYFYPSDNLKVLMHKFTDMVNFTINIMIEKNLTSRNSVSNEVYHKLKEYEIPSYYYIEAINKAVALVKTYRKRLKKKQKATVPHVEKPMLSTYYGFKIVGGNIMIPIANREYESIPLNAYVRDATSMVKVHSFALSAYTLSLTIGRDVDAIECTTTVGVDRNLRNITVGNEFHHEIYDLSNIVEIKQRYRKKESHFHRNDRRIREKILSKYGKRERNRVKQIMHETSKAIVSNASTKKEMIVLENIIGINQITKKGDGKGKDYRFLLKNAFPYGMLASQVMYKASWEGLPVIELTRKETRNTSRMCSVCGSLTRIEHGRILKCDSCGLEIDRDVNACINIAFRYRTCLKRSHKGLPGEAVKQSKDVEQMAGSQISMDILEHHHHHH | not soluble
8 | MGSDKIHHHHHHTEDTVIKVSVLRGPSVIAFADWLENPPIIDNKKVQVKVVDSPDLAQALLIKQETDIAVLPMINAANLYNKGIKIKLAGCPIWGTLYLVEKTPLKEPALYVFGNGTTPDILTRYYLGRQRLDYPLNYAFNTAGEITQGILAGKVNRAVLGEPFLSIALRKDSSLRITADLNHLTDNDTLGFAQTAVVYTPTMEKYRIAFEDALRASCQKAVRYPKETIHSLEEHGIFAQGALTPKSIERCKIYYLSAIEAKDAVMGFLRLIEQYEPKAVGGRLPDAGFIPEKQ | not soluble
9 | MSVVSNHHSNGNGNSTVYDTNGNDEIKKEVKDEPMASDSEVPFGELMKRDKKEKKQKKRKAESGSDEDDYKPEKRKSSAKNGKKKDVGSDSEDDYKPEKKKSKKNNKKKAQESSEDDDEESEGDVSEEDVKPQIHSDDELEEEDEAPTTDDEEEQKRKEKERRKKEKREKKERKEKKRLEKENRKIKEEDDEDSDDEDDEKAKKKKRKSKGAEKSKPSTSKKDAGGKKEPPKKKVKKEEDIEDIWEWWKEEKKPAGVKWNSLQHCGPLFAPPYIPLPSHVHFKYGGEKMKLTLETEEIAQFYAGVLDHEYSTKEAFNKNFMKDWRKVMTVEERERIHDLKKCDFRAIDAYQKEQREIRKAMTKEEKLKIKEEKEAEVKIYGIAIIDGHRQKVANFRIEPPGVFRGRGGHPKMGLIKKRIMPEDVIINCGKDTEIPKPPPGHKWKEVRHDNTVTWLCSWTESVLGQNKYIMLNPSSKIKGEKDFEKYETARRLKKKIGGIRERYTDDFKSKEMRVRQRATALYFIDKLALRAGNEKDVDEAADTVGCCSLRVEHIKLFDSAKLNEDDKKEKEFVVEFDFLGKDSIRYFNRVSVEKRVYKNLKIFMEGKAPSDDLFDRLDTATLNDHLRSLMDGLTVKVFRTYNASITLQEQLIKLTNPKDNVAAKILSYNRANRQVAILCNHQRAVSKGFDESMQKLEQKIKDKKKEVKEAEAALKSARGAEKEKAQKKYDRLKEQLKKLKISRTDKDENKQIALGTSKLNYIDPRITVAWCKKFEVPLEKVFTKTHREKFRWAIDMTNSSDEEYVF | soluble
10 | MPILQELRLGKRISRDISLADLYQEWIELKILPSSRSEETKKKYLLRKNTIERLFGNKKVTQIRASEYQRIMNKYGQTVGRNFLGRLNTGIHQSIQMAIADKVLIDDFTQHVELFSSKLEHHHHHH | soluble
11 | MRVLLIEKNSVLGGEIEKGLNVKGFMADVTESLEDGEYLMDIRNYDLVMVSDKNALSFVSRIKEKHSSIVVLVSSDNPTSEEEVHAFEQGADDYIAKPYRSIKALVARIEARLRFWGSNVIEIGDLTISPDEEKIIYKGREVEVKGKPFEVLTHLARHRDQIVSKEQLLDAIWEEPEMVTPNVIEVAINQIRQKMDKPLGISTVETVRRRGYRFCYPKPACEE | soluble
12 | MKALTTRQQEVYDLVRDHLAQTGMPPTRAEIAQRLGFRSPNAAEEHLKALARKGVIEIVSGASRGIRLLMEEEEGLPLIGRVAAGEPLLAQQHIEGHYKVDPSLFKPGADFLLRVNGMSMRDIGILDGDLLAVHKTQDVRNGQVVVARIDDEVTVKRLKKQGNIVHLLPENSEFQPIVVDLREQSFTIEGLAVGVIRNGDWI | not soluble
13 | MAHHHHHHSLEIRAFSKYRKRALSLVRGKVLEIGVGTGKNLPYYPKDVEVIGIDFSRNMLKKAEERRRKLRLENVTLLYMDAQDLEFEDNTFDTIVSTFVFCTVPDPIKGLKEAYRVLKPGGRAIFLEHMKSESKLLNVPLYLMEPFIRTLLGTSLLRETQRNIERAGFKIEKVENLFYDIVRLIIATKDEG | soluble
14 | TNDEETIQQQILALSADKRNFLRDPPAGVQFNFDFDQMYPVALVMLQEDELLSKMRFALVPKLVKEEVFWRNYFYRVSLIKQSAQLT | soluble
15 | MGSDKIHHHHHHVLDKIELFILDMDGTFYLDDSLLPGSLEFLETLKEKNKRFVFFTNNSSLGAQDYVRKLRNMGVDVPDDAVVTSGEITAEHMLKRFGRCRIFLLGTPQLKKVFEAYGHVIDEENPDFVVLGFDKTLTYERLKKACILLRKGKFYIATHPDINCPSKEGPVPDAGSIMAAIEASTGRKPDLIAGKPNPLVVDVISEKFGVPKERMAMVGDRLYTDVKLGKNAGIVSILVLTGETTPEDLERAETKPDFVFKNLGELAKAVQ | soluble
16 | MGSKRRFSSEHPDPVETSIPEQAAEIAEELSKQHPLPSEEPLVHHDAGEFKGLQRHHTSAEEAQKLEDGKINPFTGREFTPKYVDILKIRRELPVHAQRDEFLKLYQNNQIMVFVGETGSGKTTQIPQFVLFDEMPHLENTQVACTQPRRVAAMSVAQRVAEEMDVKLGEEVGYSIRFENKTSNKTILKYMTDGMLLREAMEDHDLSRYSCIILDEAHERTLATDILMGLLKQVVKRRPDLKIIIMSATLDAEKFQRYFNDAPLLAVPGRTYPVELYYTPEFQRDYLDSAIRTVLQIHATEEAGDILLFLTGEDEIEDAVRKISLEGDQLVREEGCGPLSVYPLYGSLPPHQQQRIFEPAPESHNGRPGRKVVISTNIAETSLTIDGIVYVVDPGFSKQKVYNPRIRVESLLVSPISKASAQQRAGRAGRTRPGKCFRLYTEEAFQKELIEQSYPEILRSNLSSTVLELKKLGIDDLVHFDFMDPPAPETMMRALEELNYLACLDDEGNLTPLGRLASQFPLDPMLAVMLIGSFEFQCSQEILTIVAMLSVPNVFIRPTKDKKRADDAKNIFAHPDGDHITLLNVYHAFKSDEAYEYGIHKWCRDHYLNYRSLSAADNIRSQLERLMNRYNLELNTTDYESPKYFDNIRKALASGFFMQVAKKRSGAKGYITVKDNQDVLIHPSTVLGHDAEWVIYNEFVLTSKNYIRTVTSVRPEWLIEIAPAYYDLSNFQKGDVKLSLERIKEKVDRLNELKQGKNKKKSKHSKKHHHHHH | soluble
17 | MSQLTEFISCIPVVNEEQNEEDERGLCKIQIEDGAMLETLDENSLSGLRIEKMLVSEGTGIFSKSSFGINDLRIFTGENIDEESKKYVWYELLKMLTGHKVYIASLDEKVVFTKWTCRMQDDEVWKVVMELESSAIIRKIAELTLHPVKKGEIDLFEMADKLYKDICCVNDSYRNIKESDSSNRNRVEQLARERELLDKLLETRDERTRAMMVTLLNEKKKKIRELHEILRQNNIKLSDDDVLDSA | soluble
18 | MSLYTASQLLDKINSHISDIRFTRTPAGLYDPIKYVLSMGGKRIRPVLMLMAYNLYKEDVSSIYDPATAIEVYHNYTLLHDDLMDRADMRRGKTTVHKVWNDNTAILSGDAMLVLAYQYMAASSSEHLKEVMDLFSLTALEICEGQQMDMNFESREDVKEEEYLEMIRLKTAVLLAASLKIGAILGGASPEDAENLYDFGMQIGVAFQLQDDLLDVYGDPAVFGKNIGGDILCNKKTYMLIKALERADRDQLEGLNHWLSATSFCPEEKISAVTELYTQIGIKAVCENKMREYYTRAMTSLGAVSVIEDKKSELKKLMKHLMYREGHHHHHH | soluble
19 | MSLDNGEAAIIIGEFYKRNDQWKFRALSEGSAYGLSAFGRKIGLEVDDRHPRRPSGGSGGPAGGPRHESATGTAFVVGPAHVMTCAHVIEDMGVFYINSLEGRYKAEAVVIDRRNDIALLRVQGAPPLSAVTFREGQGCEPGDTVAVLGYPLASISGGGLQVTQGGISGLFGLHNDASLFQFTAPIQPGSSGSPLFDNGGAVIGMVTSTVPDGQNMNFAVKSALLMSFLQACRIDEGHHHHHH | not soluble
